Experimental data published in patent EP1343909B1.

Target: plasminogen
Test: cell-based or functional assay

## Bacteriophages which harbored K2S on gp3 (K2S-φ) (from UniProt P00750 209-562)
  fibrinogen-dependent enzymatic activity (amidolytic assay with plasminogen and S-2251): < 0.25 IU/ml
